# Source: the DeepSol protein solubility set
# Assay: soluble on expression in E. coli; label from the status in PepcDB or PDB records
row,Sequence,soluble on expression in E. coli
1,MGSDKIHHHHHHMLNDANLQAADMPDTEFTLTRNGFGRLVLTLGDGTAHEGVVPVRAFPIGAPDDGIGMMSTDGHELAWIPRLDRLPAPQRAMVEEELAAREFMPEIQRIVGVSTFATPSEWTVQTDRGQTTLVLRGEEDIRRLAGTTLLISDSHGIHYLIRDLMALDRASRKILDRFL,not soluble
2,MSLRKFIDLHLHLDGSVPVSTVKKLMQEHDLPIPTDQELRQELSVDSSCKSLDQFLEKFALPNKLMQTRHDLETIVYDLLTELKAQGLVYAEIRFAPQLHTKEGLTQEDAIKAAISGLNKFLYDQKEKNDSPELHAGLILCLMRFSNNQKENIETVELAKKFLNKGVVGLDLAGAEGPIPNIKYKSFFNQAQQLGVPYTIHAGEADGPDSIRQALAMGAKRIGHGIRCTEDTQLTQELIDQQIVLECCATSNMNTKAFDQIDSYPIKKLLHKGMKVTLNSDDMTVSDTNLLHEYKVLEKRTDLTPEEETTLYLNAVDAAFTTPDEKIRLRAFLQKEGHHHHHH,soluble
3,MGSDKIHHHHHHMMAKLVVCIIDGMADPPPPAGGVTPLAAAHTPHCDTLARHSVAGLCHVIQPEAVPGSEAGLSALLCCEAAASIARGPVEALAQGDPVAPHETVWRLNLVSLGPRGNYYNPAPLLDAATETAARKMLDRALGTQGYSLLGGKGFRHLCAGTEPPVLRDGPQDVCGMTPDTGQADLNSYCPRLARAMTEANVLFRRSRMDLAVWPWGAGTMPDLPGFAETTGQTGALAGGVPLARGLALALGMTAPSIAGATGGIDTDLGAKTRAAIALAAGHDVVYLHVEAPDLHAHALDRVAKRRAIERIDAEVVGPLHMALPDATLLITCDHATDCATGRHMAIPVPFILHKPDGPQDGIATFSEAASARTGIRIDSAATLVRLALAD,not soluble
4,MKAMKSLGADLDKALGRLSGGLYIITAKKGDVSSAMLASWVNQASFKPLGFSIAVAKDRAIESLMQVGDRFVLNVLEEGNYQPLMRHFLKRFAPGADRFEGVKTQPAENGAPILGDALAYMECEVVSRMDCGDHWAVYSTVYAGRVSKSEALTAVHHRKVGNHYLEHHHHHH,soluble
5,MMGYNFNEKPLLIFWETTKACGLKCEHCRASAILEALPDEMNYDESIDFLSHIKEFGKPYPIVILTGGDMLRKRRINDIMKYLKDAEIPFSVSPAVTEMLTDERIKSFLEFGVSSVSISLDGMKDVHEKVRGVPGVFDDTVRVVEKLIKEGIPMQINTVVMRSTVNDLPKVLKLILDKSVKVWEVFFLIKTGRGIDREDLSPEEYEDVNKYLLYATGYGIRIRTVESPIFRRITLQSGSTGRIEGGPLYQKLVSETEKIIGKKPSAIAKSVIPTRDGYGIIFVGHNGDVYPSGFLPYKVGNVKNQSIVDIYRKSELLRKIRDPDNLVGKCGFCEYRSVCGGSRARAFAYSSDPFGTDPSCSYMPKSVVSA,not soluble
6,MGSDKIHHHHHHMKLLVTGATGKLGTKIVEHLLTKIEAENVIVSVRDPKKANELASRGIEVRHGDFDEPDTLQQAFAGVDRLLIISTDGEEATRIRQHTAAVEAAKAAGVGLIAYTSIANAEASQNFLARTHQVTEQLIRETGIPFLFFRNNWYLENEQSTIDAVRAGQDWLTSAGNGTVGWALQEDYAEAIATVLVDPKPTKSIYELSGPLHTQQDIAEALGQVLGRPVQVKQVDSATYTAIMQQAGVPEFLLPMLQAIQEGIAAGTLAVESQDFEHILDRPPVSLEDGLRQLVQR,not soluble
7,VYDNDIDTGAKNTLNLDEELQLGELSLDTIRSLEKLAPFGMDNKKPVFWLHDITVTQARTMGQNGAHLKFKVKQGKASFDVVAFNKGHLLQEFQQAQGLELAVTLSVNVWNGQTTLQ,not soluble
8,MGSDKIHHHHHHMDKLQRISEAIKSKKKLVVMFSGGVDSTLLAKLAREVLGKNAVALTIDSPVIPRKEIEEAKNLANLIGIRHEFIELNELKSRHLIENPPDRCYLCRKLRDNIVKNWARENGFDVIADGLNFSDLQDYRPGVKASTEDGIWHPFIDFEVTKEEIREYSKKLGLPTWDKPAMACLCSRFPYGFGLNEERVRMVEKAENFLRELGFREVRVRFFPYKTAVVEVGRDEMELLMGKRTDIVLALQKIGFSFVTLDLEGFASGKLNRTIEGMSK,not soluble
9,MSKLAEFREAERKLQEQLALLEKLKSDSSLKQELEFKDKLQALMDKYGMTLHNIIAILDPKAPVTVSAAPQRRARALKVYKNPNNGEVVETKGGNHKVLKAWKEQYGSETVESWLQR,not soluble
10,QGVRTFVDPFTFEDPNQAVREFAKEIDASCIKIEKVIGVGEFGEVCSGRLKVPGKREICVAIKTLKAGYTDKQRRDFLSEASIMGQFDHPNIIHLEGVVTKCKPVMIITEYMENGSLDAFLRKNDGRFTVIQLVGMLRGIGSGMKYLSDMSAVHRDLAARNILVNSNLVCKVSDFGMSRVLEDDPEAAYTTRGGKIPIRWTAPEAIAYRKFTSASDVWSYGIVMWEVMSYGERPYWDMSNQDVIKAIEEGYRLPPPMDCPIALHQLMLDCWQKERSDRPKFGQIVNMLDKLIRNPNSLKRTGSESS,soluble
11,MGSDKIHHHHHHMLKDKMIAKGAKYIQSIYQDPFIQGIIKGRLDHDVICHYLQADNIYLGKFADIYALCLAKSDNLRDKQFFLEQIDFTLNRELADGEGPHQALAAYTNRSYQDIIEKGVWYPSADHYIKHMYFHFYENGIAGALAAMSPCPWIYHQLAKKIIEENQFLNGNPFNNWITFYANDTVEELMENYFRMMDYYAQNLSKEKQADLVDAFVKSCQHERRFFQMAINQEKWED,not soluble
12,MSVLQRIVSRRTQLSESGRQIGDWVLANAAQAAAMTSQDLAAWANVSQSSIVKFTQRLGFKGYSEFKLALTEELGRKQVMVNQPLHSNILADDPVAVIAQKLVQTKTEAMFHTTNALRLDEFSEAISWIQQAVRVQIIGIGGSALVAKDLAFKLLKLGITALTEQDSHVQIATARTLHSQDVLIAISFSGEKREILIAAEAAKQQGAKVIALTTPNKNRLREIADLALDTIADETQHRSSAIASRTAQNVLTDLIFLTLTQQRETSARQLIDDISSDIRQMR,not soluble
13,MGSDKIHHHHHHMKSFQLVATAASGLEAIVGKEVARLGYDPKVENGKVYFEGDLSAIARANLWLRVADRVKIVVGVFKATTFDELFEKTKALPWEDYLPLDAQFPVAGKSVKSTLYSVPDCQAIVKKAIVNRVSEKYRRSGRLMETGALFKLEVSILKDEVTLTIDTSGAGLHKRGYRLAQGSAPIKETMAAALVLLTSWHPDRPFYDPVCGSGTIPIEAALIGQNIAPGFNREFVSETWDWMPKQVWADARQEAEDLANYDQPLNIIGGDIDARLIEIAKQNAVEAGLGDLITFRQLQVADFQTEDEYGVVVANPPYGERLEDEEAVRQLYREMGIVYKRMPTWSVYVLTSYELFEEVYGKKATKKRKLYNGYLRTDLYQYWGPRKPRPKKED,not soluble
14,MSDDPNTTQERAMEGPSENQAARQLEGNQEEAQRQPKEEQADREEAKGEEEAPQVAAALPIPDSPFLTELARLLRGSLRPYLNTEPDEVIEAARQDHQLDQEVANENLLQYICRTLVESNDMGKLAEIRELFARTPEDPAFNTPAGIDDSAMNQFYELIRDCRVVPEDDQTFVPRQALATRIHLIIDSFQARRESEFLRQWCQQNIVCLLYGNPVPEMKDFAYRILIEMLTSSSTWTAELESFANELSRKRGTFINDYWATIRDQNEAGDLDPKRTLFADFRDQHSVFGNVQFDIFRERLAQLEKLWHSQMRMFDVPDKVLCVTGIVTDTMTEMLMGVKDGKPNITPFLKKARIFYRLSDGAETSEAPAEASARASEAPEAPALPPKRSRGIKRKLSEYAEELFESKKPKSDELPTAEQWMYFLQHCLQGPEQDEQRGGNQ,not soluble
15,MGSDKIHHHHHHMKKKNTTPTPHDATFRQFLTQPDIARDFMELHLPAELRAICDLSTLKLESGSFVEDDLRQYFSDVLYSLKTTAGDGYIHVLVEHQSTPDKHMAFRLIRYAVAAMQRHLEAGHKKLPLVIPVLFYTGKRSPYPYSTRWLDEFDDTALADKLYSSAFPLVDVTVIPDDEIAGHRSMAALTLLQKHIHQRDLAELVDRLAPILLAGYLSSSQVISLVHYIVQAGETSDAEAFVRELAQRVPQHGDALMTIAQQLEQKGIEKGIQLGEQRGIEKGRSEGEREATLKIARTMLQNCIDRNTVMKMTGLTEDDLAQIRH,not soluble
16,MGSDKIHHHHHHCAASWVHPLTGAHLLLFGTEQGIYSFDTNCMPDGNLSKIHHRRCSWMFVYADRLTAIQGNTPYVYRHDLVALTQKNLTLKMSKNLNKIPEKYVPKRLAITVRMPETRGALQCTVKRGQGAQANSLFLCCAVRKTVHLFQWYNPMNQFVLVRSEPIREDIRFPIRPFALINSRTSDFPELCIGVGQMSGSNEYQFNMINFCSSTNNSELSGDLNSSYGSLADDEMLEVGSMHQIDRDTLCFSFRNKVVLTDLQGFERPKPSIFTFNFHIEYLHVVDGTILAFHANGVQGRDLKSNLNTQDLCDVSRLYRVIGDDRVIILRSQP,not soluble
17,MNKDTVLNVTVMGREFRIHCPGEEREELLLAVSCLNRKMQEIKSAGKIAGTEQIAIAAAISMTHELLSIRSQRGFDMNEFKRRIELLECRVSDALTDQGIYKNS,not soluble
18,GPGSMAVQPGKVLAEQFSRQGIQYEESTDVLWCSLCTKADSLEIISRATVEDVLEHCRLRQHLLLMEKETVKEHYCPVEINGRSFLLDHNCVYPSTMFGKGRMLLDDTLGCVMTEDVCGGVKLLPRHKYTVVEIVIPPAGTPIPKDPSYYVERPVRSRKCHEKFDSWIQVHNSSVEGESALMKRRRIAFSQLNM,not soluble
19,MKFKQIILAGAVLATSTFTSLTNAQAETGFRDVPSDHWSYNAIMGLKEKNIVAGYGNGMFGFGDNITRGQVARLIYAYLKPADEHNAPNPFTDVKGHMFEKEILSLSKAGIMNGFGDGKFGPDNVLTREQLAVVLTKAFNFKATSTTTFKDVDKNYWATNAISALQENKIAAGTGDNLFEPKNIVTREQYAQFLYNAMNTVEVKPELTPFGIPSSMITNDFYYNSNNWKNASPVLKKSVSNEAQNLITKINKKYNEDYKYESASVSSMGLPESVQLRTSNPNLGRVYDLGQGQFFVQGENEHDFYIMFIIDNATVELAKSWITLINSDLNLDKEINDVIAMPSQKARGRDYHTYLDKGKYQIELGTSPQTKGYDSLFIGIKRK,not soluble
20,MVRMALEGMSKRKRKRSVQEGENPDDGVRGSPPEDYRLGQVASSLFRGEHHSRGGTGRLASLFSSLEPQIQPVYVPVPKQTIKKTKRNEEEESTSQIERPLSQEPAKKVKAKKKHTNAEKKLADRESALASADLEEEIHQKQGQKRKNSQPGVKVADRKILDDTEDTVVSQRKKIQINQEEERLKNERTVFVGNLPVTCNKKKLKSFFKEYGQIESVRFRSLVCFIPPLEHHHHHH,not soluble
21,MGSDKIHHHHHHMILLVGGEKGGSGKSCLAQNIAVHISQKHDANVLMVDCDPQRTTSDWIQARNNDPSLKAINCIQLYGKIRNDLLSLNDRFDYVIVDCGGQDNLAMRAAMSVATYVVIPLRPKRRDLKTLPHMEDMLSTCKMVNPKMIAAIVITQCPALPSQGKRILEAKEVVESFGLRALNSVTFSRNIYDDSEESGSSVLEIDPSGKAADEIRAIADELFAIPPENSYEFN,not soluble
